In patent US12605539B2, “Methods and systems for delivering drugs through skin of a body” (PASSPORT TECHNOLOGIES, INC., priority 2019, dated 2026):
One block for each molecule: values may come before it.

Legend:
[1] = Blood concentration of long-acting peptide (Semaglutide) after microporation patch, Sub Q or oral administration; type: in vivo, hairless Guinea pigs
Text: Table 1 below provides data of three groups of microporation values used to create pathways in the skin in hairless Guinea pigs before applying the patch 102 containing a long-acting peptide once weekly, for example Semaglutide. Table 2 below provides data of six (6) groups of drug administration: three (3) groups for the patch 102, one (1) group for oral administration of the long-acting peptide, and two (2) groups for injected administration of the long-acting peptide.
Groups 1-3 in Tables 1 and 2 correspond to combinations of patches 102 and the microporation parameters for a particular administration. For example, the group 1 microporation parameters of Table 1 apply in conjunction with the administration of the patch 102 according to the parameters in Group 1 of Table 2. Accordingly, the patch 102 of group 1 has the nonwoven matrix, water holding material thickness of 38 μm, water holding material weight of 12 g/m^2, and WHC of […]. The patch 102 of group 1 includes a drug of 1 mg and a total solid weight of 3.25 mg with an area of 0.5 cm^2. This patch 102 is applied to an area of the skin having 200 pathways created according to the group 1 microporation parameters, where the energy applied to the microporation device is 5.2 mJ/filament, the filaments 200 are made from stainless steel and have a treated area of 10% per square centimeter of skin, where the filaments 200 treat an area of 0.5 cm^2. Similarly, group 2 of the patch 102 parameters applies to group 2 of the microporation parameters and group 3 of the patch 102 parameters applies to group 3 of the microporation parameters.
The graph 1000 includes the concentration of the long-acting peptide in nanograms/milliliter (ng/mL) along the y-axis and time in hours (hr) along the x-axis. […] The line 1002 represents the group 1 microporation parameters and the group 1 patch 102 parameters. The line 1004 represents the group 2 microporation parameters and the group 2 patch 102 parameters. The line 1006 represents the group 3 microporation parameters and the group 3 patch 102 parameters. Each of the three lines 1002, 1004, and 1006 follow the same general trend. For each of the groups 1-3 of parameters, the concentrations of the long-acting peptide generally increase to a maximum concentration relatively quickly before gradually lessening, finally reaching a concentration of 0.
The graph 1020 includes the concentration of the long-acting peptide in nanograms/milliliter (ng/mL) along the y-axis and time in hours (hr) along the x-axis. […] The line 1022 represents the group 4 injected drug. The line 1024 represents the group 5 injected drug. The line 1026 represents the group 6 […] drug. Each of the lines 1022 and 1024 follow the same general trend, rising to a highest level of concentration before gradually falling and approaching a concentration level of 0. […] The parameters of group 5 are shown by line 1024 to have a higher concentration level spike for the duration of the bioavailability of the long-acting polypeptide in the body as compared to the parameters of group 4 shown by line 1022.
The graph 1040 is zoomed out view of the graph 1000, giving a higher level view of the relationships of the lines 1002, 1004, and 1006. Similarly, the graph 1060 is a zoomed out view of the graph 1020, showing that the line 1026 (oral consumption of the long-lasting peptide) hovers around a concentration of 10 ng/mL and is not 0, as it appears from the graph 1020.
Based on the graphs 1000, 1020, 1040, and 1060, the area under the curve for each of groups 1-6 is shown below in Table 3: […]

[2] = Blood concentration of long-acting protein (Etanercept) after patch with or without microporation or Sub Q; type: in vivo, rats
Text: Table 4 below provides data of one group (group 1) of a patch 102 containing a long-acting protein, for example Etanercept, applied without any microporation, three groups (groups 2-4) of microporation values for use with patches 102, and one group (group 5) of injected administration of the long-acting protein. Table 6 below provides details of the components of the patch or drug formulation administered according to the groups 1-5.
The graph 1100 includes the concentration of the long-acting protein in nanograms/milliliter (ng/mL) along the y-axis and time in hours (hr) along the x-axis. […] The line 1102 represents the group 1 patch 102 with no microporation. The line 1104 represents the group 2 microporation parameters and the group 2 patch 102 parameters. The line 1106 represents the group 3 microporation parameters and the group 3 patch 102 parameters. The line 1108 represents the group 4 microporation parameters and the group 4 patch 102 parameters. The line 1110 represents the injected long-acting protein. Each of the three lines 1104, 1106, and 1108 follow the same general trend. For each of the groups 2-4 of parameters, the concentrations of the long-acting protein generally increase to a maximum concentration relatively quickly before gradually lessening, finally reaching a concentration of 0. The parameters of groups 3 and 4 are shown by line 1106 and 1108 to have the highest concentration level spike while the group 4 parameters result in the higher long term concentration. The parameters of group 2 are shown by line 1104 to have a generally lower concentration levels throughout as compared to the groups 3 and 4 parameters. The group 1 and group 5 administrations are lower than all of the group 2-4 administrations. Thus, for the long-acting protein, the patch administration at skin locations treated with microporation result in better bioavailabilities than even the injected administration of the drug, as detailed in Table 7 below. The graphs 1100 and 1120 also show what effects the additional components in the drug formulation (for example, sucrose, urea, and so forth) may have on the bioavailability and blood concentrations of the long-acting protein in rats.
Based on the graphs 1100 and 1120, the area under the curve for each of groups 1-5 is shown above in Table 7. […] The administrations using the patches 102 with the different microporation parameters are shown to result in the greatest concentration levels of the drug available for the longest durations.

[3] = Blood concentration of long-acting protein (Etanercept), patch matrix comparison (Tables 8-10, FIG. 12); type: in vivo, rats; details: for peak concentration: 5.0 mg + sucrose 10 mg, 400 pores, 5.2 mJ/filament
Text: Table 8 below provides data of two groups (groups 1 and 2) of microporation values for use with a patch 102 containing a long-acting protein, for example Etanercept. Table 10 below provides details of the components of the patch or drug formulation administered according to the groups 1 and 2. As shown, both groups have the same drug formulation of the long-acting protein and sucrose in the same quantities.
The graph 1200 includes the concentration of the long-acting protein in nanograms/milliliter (ng/mL) along the y-axis and time in hours (hr) along the x-axis. […] The line 1202 represents the group 1 patch 102 with microporation parameter according to Table 8 and patch 102 parameters according to Table 9. The line 1204 represents the group 2 patch 102 with microporation parameter according to Table 8 and patch 102 parameters according to Table 9. The two lines 1202 and 1204 follow different trends. The line 1202 spikes quickly to a peak of above 800 ng/mL and then remains generally between 500 and 700 ng/mL until at least about 70 hours. […] This highlights the effects that the patch 102 parameters can have on the administration of the drug formulation.

[4] = group 1: patch 5.0 mg + sucrose 5 mg, without microporation
[5] = group 2: patch 5.0 mg + sucrose 5 mg, 400 pores, 5.2 mJ/filament
[6] = group 3: patch 5.0 mg + sucrose 5 mg + urea 5 mg, 400 pores, 5.2 mJ/filament
[7] = group 4: patch 5.0 mg + sucrose 5 mg + disodium citrate 5 mg, 400 pores, 5.2 mJ/filament

- BA ([1]; group 1: patch 1 mg (2 mg/cm^2), 0.5 cm^2, 200 pores, 5.2 mJ/filament): 63.6%
- BA ([1]; group 2: patch 2 mg (2 mg/cm^2), 1.0 cm^2, 400 pores, 5.2 mJ/filament): 47.0%
- BA ([1]; group 3: patch 4 mg (2 mg/cm^2), 2.0 cm^2, 800 pores, 5.2 mJ/filament): 31.8%
- BA ([1]; group 4: Sub Q 0.5 mg): 81.8%
- BA ([1]; group 5: Sub Q 1.0 mg): 100.0%
- BA ([1]; group 6: Oral 2.0 mg): 0.0%
Molecule: CC[C@H](C)[C@H](NC(=O)[C@H](Cc1ccccc1)NC(=O)[C@H](CCC(=O)O)NC(=O)[C@H](CCCCNC(=O)COCCOCCNC(=O)COCCOCCNC(=O)CC[C@H](NC(=O)CCCCCCCCCCCCCCCCC(=O)O)C(=O)O)NC(=O)[C@H](C)NC(=O)[C@H](C)NC(=O)[C@H](CCC(N)=O)NC(=O)CNC(=O)[C@H](CCC(=O)O)NC(=O)[C@H](CC(C)C)NC(=O)[C@H](Cc1ccc(O)cc1)NC(=O)[C@H](CO)NC(=O)[C@H](CO)NC(=O)[C@@H](NC(=O)[C@H](CC(=O)O)NC(=O)[C@H](CO)NC(=O)[C@@H](NC(=O)[C@H](Cc1ccccc1)NC(=O)[C@@H](NC(=O)CNC(=O)[C@H](CCC(=O)O)NC(=O)C(C)(C)NC(=O)[C@@H](N)Cc1cnc[nH]1)[C@@H](C)O)[C@@H](C)O)C(C)C)C(=O)N[C@@H](C)C(=O)N[C@@H](Cc1c[nH]c2ccccc12)C(=O)N[C@@H](CC(C)C)C(=O)N[C@H](C(=O)N[C@@H](CCCNC(=N)N)C(=O)NCC(=O)N[C@@H](CCCNC(=N)N)C(=O)NCC(=O)O)C(C)C [Semaglutide]

Molecule: Etanercept
- AUC [2, 4]: 0.172 µg·h/mL
- BA [2, 4]: 0.0%
- Cmax [2, 4]: 9.6 ng/mL
- AUC [2, 5]: 208.5929 µg·h/mL
- BA [2, 5]: 94.3%
- Cmax [2, 5]: 5189.0 ng/mL
- AUC [2, 6]: 604.0884 µg·h/mL
- BA [2, 6]: 99.4%
- Cmax [2, 6]: 16578.6 ng/mL
- AUC [2, 7]: 712.8251 µg·h/mL
- BA [2, 7]: 117.2%
- Cmax [2, 7]: 16982.4 ng/mL
- AUC ([2]; group 5: Sub Q 1.0 mg): 121.5723 µg·h/mL
- BA ([2]; group 5: Sub Q 1.0 mg): 100.0%
- Cmax ([2]; group 5: Sub Q 1.0 mg): 1298.7 ng/mL
- peak concentration ([3]; group 1: matrix 38 μm, 12 g/m^2, WHC 4 mg/cm^2): above 800 ng/mL
- concentration at about 70 hours ([3]; group 2 (WHC 30 mg/cm^2)): below 100 ng/mL
- time of peak concentration ([3]; group 2 (WHC 30 mg/cm^2)): about 32 hours
- peak concentration ([3]; group 2: matrix 336 μm, 50 g/m^2, WHC 30 mg/cm^2): about 275 ng/mL
